Assay results from paper PMC10602870.

Legend:
Assay in all cases: native gel or EMSA; binding titrations of 80N0 nucleosomes with Chd1 in the presence of AMP-PNP and salmon sperm competitor DNA; observed (apparent) Kd; read from gels (Supplementary Figure S6)
[1] = biological target: 80N0 nucleosome, canonical Widom 601 DNA, Xenopus laevis histone octamer with H2B(S53C) (Xenopus laevis)
[2] = biological target: 80N0 Widom 601 nucleosome with 2 bp DNA mismatches at both SHL2 sites (SHL+/-2, 20 bp from the dyad), Xenopus laevis histone octamer with H2B(S53C) (Xenopus laevis)
[3] = biological target: 80N0 Widom 601 nucleosome with pairs of abasic sites at both SHL2.7 sites (SHL+/-2.7, 27 bp from the dyad), Xenopus laevis histone octamer with H2B(S53C) (Xenopus laevis)
[4] = biological target: 80N0 Widom 601 nucleosome with 2 bp DNA mismatches at both SHL2.7 sites (SHL+/-2.7, 27 bp from the dyad), Xenopus laevis histone octamer with H2B(S53C) (Xenopus laevis)
[5] = biological target: 80N0 Widom 601 nucleosome with pairs of abasic sites at both SHL2 sites (SHL+/-2, 20 bp from the dyad), Xenopus laevis histone octamer with H2B(S53C) (Xenopus laevis)

Kd [1]: 24 nM
Kd [2]: 450 nM
Kd [3]: 68 nM
Kd [4]: 22.2 nM
Kd [5]: 10000 nM
Substance: Chd1 chromatin remodeler (from UniProt P32657 1-1468) (enzyme)
